Drawing on the supplement of paper PMC10567573, this text covers protein stability index for 94 variants.

First the molecules themselves.
B1: C22orf15 (parent)
chain: ITQSWQVSVRVQPRGRAHLLPNPY
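Note: lentivirally expressed fusions sorted by FACS into six bins by GFP to DsRed ratio, PSI derived from sequencing read proportions per bin multiplied by bin number.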

The variants in the data set derive from B1. The data set is described as follows: protein stability index of a GFP-peptide fusion (GPS, HEK-293T) (PSI 1-6); higher = more stable. The following applies: c terminus: a fixed tail appended.
Regarding ITQSWQVSVRVQMRGRAHLLPNPY, the protein stability index was determined as 1.91.

In the case of ITQSWQVSVRVQGRGRAHLLPNPY, the protein stability index was determined as 1.64.

With ITQSWQVSVRVQLRGRAHLLPNPY, the protein stability index is 2.69.

Take ITQSWQVSVRVQIRGRAHLLPNPY: the protein stability index was 2.67.

Regarding ITQSWQVSVRVQNRGRAHLLPNPY, the protein stability index amounted to 1.74.

Turning to ITQSWQVSVRVQQRGRAHLLPNPY, the protein stability index stood at 2.21.

In the case of ITQSWQVSVRVQHRGRAHLLPNPY, the protein stability index is 2.27.

Consider ITQSWQVSVRVQDRGRAHLLPNPY, for which the protein stability index was determined as 1.86.

For the variant ITQSWQVSVRVQKRGRAHLLPNPY, the protein stability index turned out to be 1.65.

On to ITQSWQESVRVQPRGRAHLLPNPY, for which the protein stability index is 2.29.

ITQSWQNSVRVQPRGRAHLLPNPY: the protein stability index turned out to be 2.38.

ITQSWQHSVRVQPRGRAHLLPNPY: the protein stability index was found to be 2.68.

For ITQSWQYSVRVQPRGRAHLLPNPY, the protein stability index was found to be 1.86.

Turning to ITQSWQRSVRVQPRGRAHLLPNPY, the protein stability index is 2.39.

As to ITQSWQDSVRVQPRGRAHLLPNPY, the protein stability index amounted to 2.42.

As for ITQSWQLSVRVQPRGRAHLLPNPY, the protein stability index is 1.88.

With ITQSWQCSVRVQPRGRAHLLPNPY, the protein stability index was found to be 1.6.

ITQSWQQSVRVQPRGRAHLLPNPY: the protein stability index came to 2.51.

Turning to ITQSWQTSVRVQPRGRAHLLPNPY, the protein stability index was found to be 2.04.

ITQSWQGSVRVQPRGRAHLLPNPY: the protein stability index turned out to be 2.34.

On to ITQSWQASVRVQPRGRAHLLPNPY, for which the protein stability index is 2.77.

As to ITQSWQFSVRVQPRGRAHLLPNPY, the protein stability index came out at 2.22.

As to ITQSWQSSVRVQPRGRAHLLPNPY, the protein stability index came out at 2.12.

With ITQSWQPSVRVQPRGRAHLLPNPY, the protein stability index was 2.7.

Regarding ITQSWQMSVRVQPRGRAHLLPNPY, the protein stability index came out at 2.46.

For the variant ITQSWQKSVRVQPRGRAHLLPNPY, the protein stability index worked out at 1.81.

Turning to ITQSWQWSVRVQPRGRAHLLPNPY, the protein stability index came out at 1.5.

Regarding ITQSWQVSVRPQPRGRAHLLPNPY, the protein stability index came out at 1.8.

For ITQSWQVSVRMQPRGRAHLLPNPY, the protein stability index was 3.05.

With ITQSWQVSVRQQPRGRAHLLPNPY, the protein stability index stood at 1.49.

In the case of ITQSWQVSVRYQPRGRAHLLPNPY, the protein stability index stood at 1.68.

Regarding ITQSWQVSVRIQPRGRAHLLPNPY, the protein stability index was 4.95.

With ITQSWQVSVREQPRGRAHLLPNPY, the protein stability index worked out at 2.65.

On to ITQSWQVSVRKQPRGRAHLLPNPY, for which the protein stability index was 3.28.

In the case of ITQSWQVSVRRQPRGRAHLLPNPY, the protein stability index turned out to be 1.86.

In the case of ITQSWQVSVRGQPRGRAHLLPNPY, the protein stability index came out at 2.43.

As to ITQSWQVSVRHQPRGRAHLLPNPY, the protein stability index came out at 2.49.

On to ITQSWQVSVRSQPRGRAHLLPNPY, for which the protein stability index came out at 1.95.

As to ITQSWQVSVRTQPRGRAHLLPNPY, the protein stability index was 1.87.

For the variant ITQSWQVSVRFQPRGRAHLLPNPY, the protein stability index was 1.69.

In the case of ITQSWQVSVRDQPRGRAHLLPNPY, the protein stability index was 2.45.

With ITQSWQVSVRNQPRGRAHLLPNPY, the protein stability index amounted to 2.51.

In the case of ITQSWQVSVRAQPRGRAHLLPNPY, the protein stability index worked out at 2.07.

For the variant ITQFWQVSVRVQPRGRAHLLPNPY, the protein stability index is 3.65.

Turning to ITQTWQVSVRVQPRGRAHLLPNPY, the protein stability index came to 1.48.

ITQQWQVSVRVQPRGRAHLLPNPY: the protein stability index is 1.87.

On to ITQAWQVSVRVQPRGRAHLLPNPY, for which the protein stability index is 3.33.

ITQRWQVSVRVQPRGRAHLLPNPY: the protein stability index was determined as 2.99.

With ITQPWQVSVRVQPRGRAHLLPNPY, the protein stability index was 1.65.

Turning to ITQHWQVSVRVQPRGRAHLLPNPY, the protein stability index amounted to 2.83.

On to ITQKWQVSVRVQPRGRAHLLPNPY, for which the protein stability index amounted to 1.42.

Consider ITQNWQVSVRVQPRGRAHLLPNPY, for which the protein stability index was determined as 1.73.

Take ITQYWQVSVRVQPRGRAHLLPNPY: the protein stability index came to 2.42.

In the case of ITQGWQVSVRVQPRGRAHLLPNPY, the protein stability index stood at 2.27.

Turning to ITKSWQVSVRVQPRGRAHLLPNPY, the protein stability index worked out at 1.95.

In the case of ITDSWQVSVRVQPRGRAHLLPNPY, the protein stability index came to 1.47.

ITRSWQVSVRVQPRGRAHLLPNPY: the protein stability index amounted to 1.1.

As to ITTSWQVSVRVQPRGRAHLLPNPY, the protein stability index came out at 1.51.

With ITSSWQVSVRVQPRGRAHLLPNPY, the protein stability index is 3.25.

In the case of ITESWQVSVRVQPRGRAHLLPNPY, the protein stability index was 1.07.

ITFSWQVSVRVQPRGRAHLLPNPY: the protein stability index is 2.14.

In the case of ITWSWQVSVRVQPRGRAHLLPNPY, the protein stability index stood at 1.68.

Take ITNSWQVSVRVQPRGRAHLLPNPY: the protein stability index was determined as 1.85.

Regarding ITYSWQVSVRVQPRGRAHLLPNPY, the protein stability index came to 4.26.

ITHSWQVSVRVQPRGRAHLLPNPY: the protein stability index is 2.02.

Consider ITASWQVSVRVQPRGRAHLLPNPY, for which the protein stability index worked out at 3.08.

As for ILQSWQVSVRVQPRGRAHLLPNPY, the protein stability index is 2.27.

IWQSWQVSVRVQPRGRAHLLPNPY: the protein stability index was 2.62.

With IKQSWQVSVRVQPRGRAHLLPNPY, the protein stability index came to 1.87.

On to ISQSWQVSVRVQPRGRAHLLPNPY, for which the protein stability index was determined as 1.77.

For the variant IPQSWQVSVRVQPRGRAHLLPNPY, the protein stability index was 2.43.

As to ICQSWQVSVRVQPRGRAHLLPNPY, the protein stability index is 3.3.

Consider IGQSWQVSVRVQPRGRAHLLPNPY, for which the protein stability index was 1.77.

For the variant IQQSWQVSVRVQPRGRAHLLPNPY, the protein stability index is 2.53.

Take IEQSWQVSVRVQPRGRAHLLPNPY: the protein stability index was 1.69.

In the case of IYQSWQVSVRVQPRGRAHLLPNPY, the protein stability index was 3.42.

For IDQSWQVSVRVQPRGRAHLLPNPY, the protein stability index amounted to 2.46.

IFQSWQVSVRVQPRGRAHLLPNPY: the protein stability index came out at 2.43.

Regarding IHQSWQVSVRVQPRGRAHLLPNPY, the protein stability index was 1.45.

In the case of IMQSWQVSVRVQPRGRAHLLPNPY, the protein stability index was 3.15.

For the variant IAQSWQVSVRVQPRGRAHLLPNPY, the protein stability index came to 1.43.

Take ITQSWQVNVRVQPRGRAHLLPNPY: the protein stability index amounted to 1.46.

Turning to ITQSWQVHVRVQPRGRAHLLPNPY, the protein stability index came to 2.28.

ITQSWQVCVRVQPRGRAHLLPNPY: the protein stability index is 1.12.

ITQSWQVGVRVQPRGRAHLLPNPY: the protein stability index is 2.39.

As to ITQSWQVFVRVQPRGRAHLLPNPY, the protein stability index turned out to be 2.21.

For the variant ITQSWQVAVRVQPRGRAHLLPNPY, the protein stability index worked out at 1.27.

ITQSWQVMVRVQPRGRAHLLPNPY: the protein stability index stood at 2.55.

Consider ITQSWQVDVRVQPRGRAHLLPNPY, for which the protein stability index amounted to 2.65.

Regarding ITQSWQVRVRVQPRGRAHLLPNPY, the protein stability index amounted to 2.73.

ITQSWQVEVRVQPRGRAHLLPNPY: the protein stability index worked out at 1.54.

In the case of ITQSWQVTVRVQPRGRAHLLPNPY, the protein stability index was 3.34.

As for ITQSWQVPVRVQPRGRAHLLPNPY, the protein stability index amounted to 1.71.

On to ITQSWQVYVRVQPRGRAHLLPNPY, for which the protein stability index was found to be 1.8.
